“And” between values parts separate entries of the source, which are not always exact repeats. Equal values may be shown once.
Columns and labels:
human plasminogen (Plg) = assay: ELISA; design: dose or concentration left out as unconfirmed; conditions: FnBPB proteins immobilized on microtiter wells, read off a plot
[1] = target: full-length FnBPB on S. aureus FnBPB^(+) cells (S. aureus strain 8325-4); assay: single-molecule force spectroscopy (AFM); Fg tips against living FnBPB^(+) cells; PBS, contact time 100 ms, applied force 250 pN, speed 1,000 nm s^-1
[2] = target: full-length FnBPB on S. aureus FnBPB^(+) cells (S. aureus strain 8325-4); assay: single-cell force spectroscopy (AFM); single living S. aureus cell on a polydopamine-coated colloidal cantilever against Plg coupled to a gold substrate (NHS/EDC); PBS, 20°C, contact time 1 s, applied force 250 pN, speed 1,000 nm s^-1; without Fg
[3] = target: full-length FnBPB on S. aureus FnBPB^(+) cells (S. aureus strain 8325-4); assay: single-cell force spectroscopy (AFM); as a5, in the presence of 0.1 mg ml^-1 Fg in the AFM chamber
[4] = target: FnBPB (163-480), FnBPB_(N2N3) (S. aureus); assay: ELISA; FnBPA_(N2N3) or FnBPB_(N2N3) coated on microtiter wells (200 ng/well, 0.1 M sodium carbonate pH 9.5), increasing concentrations of Plg for 1 h; bound Plg detected with rabbit anti-Plg and HRP goat anti-rabbit IgG; Kd from the Plg saturation kinetics
[5] = target: FnBPA (194-511), FnBPA_(N2N3) (S. aureus) (UniProt P14738); assay: as above
[6] = target: full-length FnBPB on S. aureus FnBPB^(+) cells (S. aureus strain 8325-4); assay: single-molecule force spectroscopy (AFM); Plg on the AFM tip (PEG-benzaldehyde linker) against living S. aureus cells trapped in porous membranes; PBS, 20°C, contact time 250 ms, applied force 250 pN, speed 1,000 nm s^-1; without Fg
[7] = target: full-length FnBPB on S. aureus FnBPB^(+) cells (S. aureus strain 8325-4); assay: single-molecule force spectroscopy (AFM); as a7, in the presence of 0.1 mg ml^-1 Fg in the AFM chamber

## FnBPB (163-480), FnBPB_(N2N3) (from UniProt A0A0H2XKG3) N312A; F314A
Human plasminogen (Plg); + Fg (black bar), saturating amounts of Fg, bound Plg detected with rabbit antibodies followed by HRP-con, parent: est. 1.5
  response: 1.5 A490nm
Human plasminogen (Plg); - Fg (white bar), bound Plg detected with rabbit antibodies followed by HRP-conjugated goat anti-rabbit IgG, parent: est. 1.6
  response: 1.5 A490nm

## human fibrinogen (Fg) (from UniProt P02671 36-866; P02675 45-491; P02679 27-453) (complex)
[1]
  adhesion force (single molecule, cell 1): 1970 pN
  adhesion force (single molecule, cell 2): 1690 pN
  adhesion force (single molecule, cell 3): 1960 pN

## human plasminogen (Plg) (natural protein)
[2]
  adhesion force (single cell, cell 1): 556 pN
  adhesion force (single cell, cell 2): 249 pN
  adhesion force (single cell, cell 2, a few curves): 1630 pN
  adhesion force (single cell, cell 3): 1600 pN
  maximum adhesion force (single cell, cells 2 and 3): 1500 pN and 2000 pN
  mean adhesion force (single cell, 3 cells): 775 pN
[3]
  mean adhesion force (single cell, 3 cells, with 0.1 mg/ml Fg): 2100 pN
[4]
  Kd: 380 nM
[5]
  Kd: 600 nM
[6]
  adhesion force (single molecule): 188 pN
  adhesion frequency: 40%
  binding force (cell 1): 175 pN
  binding force (cell 2): 154 pN
  binding force (cell 3): 176 pN
  binding probability (cell 1): 67%
  binding probability (cell 2): 24%
  binding probability (cell 3): 42%
[7]
  binding force (cell 1, with 0.1 mg/ml Fg): 898 pN
  binding force (cell 2, with 0.1 mg/ml Fg): 619 pN
  binding force (cell 3, with 0.1 mg/ml Fg): 561 pN
  binding probability (cell 1, with 0.1 mg/ml Fg): 81%
  binding probability (cell 2, with 0.1 mg/ml Fg): 79%
  binding probability (cell 3, with 0.1 mg/ml Fg): 73%

— publication PMC5587908
